Measured values taken from patent US20160136234A1.

Columns and labels:
Experiment in all cases: cell-based or functional assay
PKD2 (h) (human) = target: T1, PKD2 (h) (human) (UniProt Q9BZL6)
T1 sequence (looked up): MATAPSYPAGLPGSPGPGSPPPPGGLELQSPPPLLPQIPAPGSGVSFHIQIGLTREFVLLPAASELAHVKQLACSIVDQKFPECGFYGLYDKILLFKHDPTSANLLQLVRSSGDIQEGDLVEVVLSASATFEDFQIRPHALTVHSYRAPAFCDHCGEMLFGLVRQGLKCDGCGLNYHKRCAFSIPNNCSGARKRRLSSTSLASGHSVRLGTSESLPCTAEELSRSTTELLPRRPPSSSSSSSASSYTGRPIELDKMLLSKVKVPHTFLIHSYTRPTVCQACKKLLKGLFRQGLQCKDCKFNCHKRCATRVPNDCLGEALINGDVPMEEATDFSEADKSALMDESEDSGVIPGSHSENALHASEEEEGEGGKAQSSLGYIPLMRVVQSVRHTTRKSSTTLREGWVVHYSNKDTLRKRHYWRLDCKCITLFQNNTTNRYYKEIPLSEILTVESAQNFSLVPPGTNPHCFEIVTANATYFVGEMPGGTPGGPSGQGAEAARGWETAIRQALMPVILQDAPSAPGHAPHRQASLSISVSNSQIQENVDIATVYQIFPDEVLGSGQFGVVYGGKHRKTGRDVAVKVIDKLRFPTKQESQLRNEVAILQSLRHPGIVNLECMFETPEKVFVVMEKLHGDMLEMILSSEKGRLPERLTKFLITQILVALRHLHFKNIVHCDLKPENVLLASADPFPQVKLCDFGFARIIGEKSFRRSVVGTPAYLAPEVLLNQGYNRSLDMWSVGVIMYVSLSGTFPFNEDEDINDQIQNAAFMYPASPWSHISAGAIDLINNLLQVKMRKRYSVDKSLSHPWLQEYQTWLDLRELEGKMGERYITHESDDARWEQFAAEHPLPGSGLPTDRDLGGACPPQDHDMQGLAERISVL

ULK2 (h) (human) = target: T2, ULK2 (h) (human) (UniProt Q8IYT8)
T2 sequence (looked up): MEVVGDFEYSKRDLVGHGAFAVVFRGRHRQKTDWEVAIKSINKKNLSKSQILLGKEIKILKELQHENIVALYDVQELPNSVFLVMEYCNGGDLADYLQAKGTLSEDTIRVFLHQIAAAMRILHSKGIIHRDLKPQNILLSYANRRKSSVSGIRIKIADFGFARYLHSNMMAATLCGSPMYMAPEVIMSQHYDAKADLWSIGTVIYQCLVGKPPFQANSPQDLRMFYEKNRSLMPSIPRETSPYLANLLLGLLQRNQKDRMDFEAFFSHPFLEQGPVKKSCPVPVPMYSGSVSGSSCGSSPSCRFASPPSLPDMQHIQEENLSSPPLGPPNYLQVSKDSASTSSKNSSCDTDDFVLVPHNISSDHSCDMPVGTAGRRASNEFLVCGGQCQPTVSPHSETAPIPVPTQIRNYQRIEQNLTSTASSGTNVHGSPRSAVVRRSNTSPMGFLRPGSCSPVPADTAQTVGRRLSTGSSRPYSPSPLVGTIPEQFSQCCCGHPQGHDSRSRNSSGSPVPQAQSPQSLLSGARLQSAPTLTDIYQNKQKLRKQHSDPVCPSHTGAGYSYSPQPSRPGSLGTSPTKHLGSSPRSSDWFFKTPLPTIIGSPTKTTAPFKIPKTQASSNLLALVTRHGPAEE

PKCµ (h) (human) = target: T3, PKCµ (h) (human) (UniProt Q15139)
T3 sequence (looked up): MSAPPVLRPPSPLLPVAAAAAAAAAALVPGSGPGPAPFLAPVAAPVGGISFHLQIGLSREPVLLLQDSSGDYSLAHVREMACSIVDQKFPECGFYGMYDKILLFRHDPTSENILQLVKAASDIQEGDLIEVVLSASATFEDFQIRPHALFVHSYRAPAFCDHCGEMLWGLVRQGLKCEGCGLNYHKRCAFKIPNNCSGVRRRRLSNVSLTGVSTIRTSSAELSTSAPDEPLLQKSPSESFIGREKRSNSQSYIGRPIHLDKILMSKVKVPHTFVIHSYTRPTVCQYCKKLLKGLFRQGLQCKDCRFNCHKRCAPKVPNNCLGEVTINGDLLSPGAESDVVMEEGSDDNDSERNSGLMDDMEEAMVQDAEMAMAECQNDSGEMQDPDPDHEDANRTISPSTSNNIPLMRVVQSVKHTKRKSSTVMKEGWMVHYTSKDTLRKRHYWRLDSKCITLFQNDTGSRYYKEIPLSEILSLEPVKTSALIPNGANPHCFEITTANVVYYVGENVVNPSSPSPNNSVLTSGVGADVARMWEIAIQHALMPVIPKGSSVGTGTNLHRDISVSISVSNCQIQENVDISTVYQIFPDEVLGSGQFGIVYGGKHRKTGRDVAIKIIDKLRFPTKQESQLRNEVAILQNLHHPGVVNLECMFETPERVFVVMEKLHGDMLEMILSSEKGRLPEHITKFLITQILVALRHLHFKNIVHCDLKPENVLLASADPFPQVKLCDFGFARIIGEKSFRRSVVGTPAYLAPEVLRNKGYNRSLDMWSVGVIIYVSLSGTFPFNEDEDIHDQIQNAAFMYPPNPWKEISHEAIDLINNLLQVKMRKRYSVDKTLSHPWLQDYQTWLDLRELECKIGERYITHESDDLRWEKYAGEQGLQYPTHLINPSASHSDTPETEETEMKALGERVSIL

Fes (h) (human) = Fes (h) (human) (UniProt P07332)
Abl (Q252H) (h) (human) = Abl (Q252H) (h) (human) (UniProt P00519)
Chain of Abl (Q252H) (h) (human) (P00519 27-1130 Q252H limits assumed): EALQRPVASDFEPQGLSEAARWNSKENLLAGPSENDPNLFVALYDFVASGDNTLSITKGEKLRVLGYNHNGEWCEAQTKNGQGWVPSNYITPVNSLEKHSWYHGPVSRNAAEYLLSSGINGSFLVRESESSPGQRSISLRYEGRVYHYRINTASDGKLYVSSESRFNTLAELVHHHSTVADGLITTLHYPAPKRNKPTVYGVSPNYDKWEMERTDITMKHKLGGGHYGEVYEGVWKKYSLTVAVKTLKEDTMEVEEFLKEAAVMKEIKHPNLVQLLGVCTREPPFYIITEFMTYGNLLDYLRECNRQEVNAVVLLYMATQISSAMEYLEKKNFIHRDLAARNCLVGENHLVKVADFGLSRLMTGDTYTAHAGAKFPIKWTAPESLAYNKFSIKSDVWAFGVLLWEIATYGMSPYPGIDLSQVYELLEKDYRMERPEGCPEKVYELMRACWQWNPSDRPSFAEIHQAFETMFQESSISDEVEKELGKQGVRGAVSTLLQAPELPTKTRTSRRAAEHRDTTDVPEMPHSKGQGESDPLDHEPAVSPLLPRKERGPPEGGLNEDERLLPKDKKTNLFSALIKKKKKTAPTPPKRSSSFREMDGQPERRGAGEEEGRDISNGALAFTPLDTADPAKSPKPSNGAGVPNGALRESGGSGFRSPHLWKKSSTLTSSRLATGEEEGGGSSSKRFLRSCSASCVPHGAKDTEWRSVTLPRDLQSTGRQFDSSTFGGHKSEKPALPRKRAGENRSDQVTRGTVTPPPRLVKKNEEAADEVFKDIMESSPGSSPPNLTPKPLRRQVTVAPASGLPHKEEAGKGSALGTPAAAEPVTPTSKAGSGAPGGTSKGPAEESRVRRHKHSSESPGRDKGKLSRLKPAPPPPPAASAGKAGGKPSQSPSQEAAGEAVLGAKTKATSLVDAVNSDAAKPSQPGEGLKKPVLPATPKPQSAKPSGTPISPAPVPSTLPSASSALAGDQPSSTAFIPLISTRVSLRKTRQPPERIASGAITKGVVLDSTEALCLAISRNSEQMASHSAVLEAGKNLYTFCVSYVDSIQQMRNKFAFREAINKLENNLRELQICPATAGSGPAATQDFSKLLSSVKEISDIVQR

MSK2 (h) (human) = MSK2 (h) (human) (UniProt O75676)
Abl(Y253F) (h) (human) = Abl(Y253F) (h) (human) (UniProt P00519)
Chain of Abl(Y253F) (h) (human) (P00519 27-1130 Y253F limits assumed): as the sequence (P00519 27-1130 Q252H limits assumed) above, with H226Q, Y227F counted along it

PAK5 (h) (human) = PAK5 (h) (human) (UniProt Q9P286)
EphA1 (h) (human) = target: T4, EphA1 (h) (human) (UniProt P21709)
T4 sequence (looked up): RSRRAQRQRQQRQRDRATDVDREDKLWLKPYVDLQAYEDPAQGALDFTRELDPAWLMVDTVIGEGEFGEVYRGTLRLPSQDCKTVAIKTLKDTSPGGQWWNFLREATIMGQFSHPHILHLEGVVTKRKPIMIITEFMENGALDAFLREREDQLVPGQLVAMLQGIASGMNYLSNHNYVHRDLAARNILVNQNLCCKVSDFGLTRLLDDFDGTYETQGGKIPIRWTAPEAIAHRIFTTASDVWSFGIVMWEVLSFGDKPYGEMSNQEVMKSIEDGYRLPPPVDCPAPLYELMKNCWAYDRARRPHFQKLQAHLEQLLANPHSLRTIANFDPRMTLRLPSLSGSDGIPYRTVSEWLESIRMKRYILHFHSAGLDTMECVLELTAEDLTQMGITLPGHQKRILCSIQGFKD

Substance: MMI-0300 (peptide)
- % activity at 100 µM (PKD2 (h) (human)): 33%
- % activity at 100 µM (ULK2 (h) (human)): 122%
- % activity at 100 µM (PKCµ (h) (human)): 22%
- % activity at 100 µM (Fes (h) (human)): 20%
- % activity at 100 µM (Abl (Q252H) (h) (human)): 82%
- % activity at 100 µM (MSK2 (h) (human)): 56%
- % activity at 100 µM (Abl(Y253F) (h) (human)): 86%
- % activity at 100 µM (PAK5 (h) (human)): 110%
- % activity at 100 µM (EphA1 (h) (human)): 73%
